Assay results taken from paper PMC6134095 (2018).

B1: FtsB (22–103), periplasmic domain of E. coli FtsB (domain or fragment)
chain: GKNGIHDYTRVNDDVAAQQATNAKLKARNDQLFAEIDDLNGGQEALEERARNELSMTRPGETFYRLVPDASKRAQSAGQNNR
B2: FtsN (58–320) plus FtsB (22–103), bound together (other)
chain 1: B1 chain
chain 2: HKKEESETLQSQKVTGNGLPPKPEERWRYIKELESRQPGVRAPTEPSAGGEVKTPEQLTPEQRQLLEQMQADMRQQPTQLVEVPWNEQTPEQRQQTLQRQRQAQQLAEQQRLAQQSRTTEQSWQQQTRTSQAAPVQAQPRQSKPASSQQPYQDLLQTPAHTTAQSKPQQAAPVARAADAPKPTAEKKDERRWMVQCGSFRGAEQAETVRAQLAFEGFDSKITTNNGWNRVVIGPVKGKENADSTLNRLKMAGHTNCIRLAAGG
B3: FtsN (57–319), periplasmic domain of E. coli FtsN (domain or fragment)
chain: B2 chain 2

Legend:
[1] = target: T1, FtsQ (58–276), periplasmic domain of E. coli FtsQ (Escherichia coli strain K-12, UniProt P06136 58-276); test: SPR; minor phase
[2] = target: T1, FtsQ (58–276), periplasmic domain of E. …; test: SPR; minor phase; remark: listed apart in the source
[3] = target: T1, FtsQ (58–276), periplasmic domain of E. …; test: SPR; major phase
[4] = target: T1, FtsQ (58–276), periplasmic domain of E. …; test: SPR

T1 sequence (P06136 58-276): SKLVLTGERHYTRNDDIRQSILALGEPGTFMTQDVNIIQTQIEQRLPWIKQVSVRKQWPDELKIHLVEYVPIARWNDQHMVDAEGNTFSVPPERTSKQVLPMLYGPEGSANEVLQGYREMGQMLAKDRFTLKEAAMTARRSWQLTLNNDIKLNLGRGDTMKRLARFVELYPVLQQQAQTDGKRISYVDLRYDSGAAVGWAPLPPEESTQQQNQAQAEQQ

Row | Binder | koff [1] | Kd [2] | koff [3] | koff [4]
1 | B1 | 0.031 s⁻¹ | 11 µM | 0.00021 s⁻¹ | 
2 | B2 | 0.03 s⁻¹ | 5.6 µM | 8.3e-05 s⁻¹ | 
3 | B3 |  |  |  | 0.076 s⁻¹
